The source of these data is patent US20250161356A1 (UNIVERSITY OF MELBOURNE, published 2025).

The chains are these.
B3: BTN2A1 ectodomain homodimer (disulfide-linked, with C-terminal Cys247 and leucine zippers) (ligand, human, UniProt Q7KYR7 29-248, looked up)
chain: QFIVVGPTDPILATVGENTTLRCHLSPEKNAEDMEVRWFRSQFSPAVFVYKGGRERTEEQMEEYRGRTTFVSKDISRGSVALVIHNITAQENGTYRCYFQEGRSYDEAILHLVVAGLGSKPLISMRGHEDGGIRLECISRGWYPKPLTVWRDPYGGVAPALKEVSMPDADGLFMVTTAVIIRDKSVRNMSCSINNTLLGQKKESVIFIPESFMPSVSPCA
notes: extracellular domain; One copy carries the acidic, the other the basic zipper; also called immobilised BTN2A1 ectodomain homodimer; BTN2A1 homodimer; not shown: acidic or basic leucine zipper and C-terminal AviTag/His tags
B10: soluble BTN3A1 ectodomain (IgV-IgC), homodimer (ligand)
chain: not shown
notes: extracellular domain; Soluble analyte or immobilised ligand in SPR; streptavidin-PE tetramer in staining; also called BTN3A1 ectodomain homodimer; BTN3A1 tetramer; not shown: C-terminal biotin ligase (AviTag) and His tags

In assay [1] the target is T1, 9C2 Vγ5Vδ1+ γδTCR on transfected HEK293T cells.
T1 construct: Control TCR, co-transfected with CD3; also called 9C2 TCR (Control)
Briefly: flow cytometry, tetramer-PE versus CD3-APC on HEK293T cells co-transfected with CD3 and 9C2 TCR; SAv ctl 26. For orientation: A flow cytometer gives signals particle by particle.

For assay [2], the target named is B10. Nature of the assay: SPR, soluble BTN3A1 ectodomain over immobilised BTN2A1 homodimer, equilibrium analysis, ± SEM.
The target in assay [3] is T2, BTN2A1 on transfected cells (human, UniProt Q7KYR7 29-527).
T2 construct: Expressed from pMIG in NIH-3T3 or HEK293T cells; also called BTN2A1+ cells; BTN2A1 WT
T2 sequence: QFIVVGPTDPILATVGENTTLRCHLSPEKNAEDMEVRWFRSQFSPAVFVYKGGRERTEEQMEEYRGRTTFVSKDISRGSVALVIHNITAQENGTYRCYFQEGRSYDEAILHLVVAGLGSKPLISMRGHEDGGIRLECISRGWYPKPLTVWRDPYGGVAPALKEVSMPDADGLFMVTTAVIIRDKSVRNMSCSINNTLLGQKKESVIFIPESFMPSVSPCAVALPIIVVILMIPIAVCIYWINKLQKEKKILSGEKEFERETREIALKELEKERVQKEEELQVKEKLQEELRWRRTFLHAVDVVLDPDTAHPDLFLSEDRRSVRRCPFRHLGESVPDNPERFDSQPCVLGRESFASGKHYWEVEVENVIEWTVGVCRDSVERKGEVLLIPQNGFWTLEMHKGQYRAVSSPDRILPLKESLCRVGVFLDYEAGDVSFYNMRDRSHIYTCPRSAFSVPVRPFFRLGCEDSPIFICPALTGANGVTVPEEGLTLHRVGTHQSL
Briefly: FRET between anti-BTN2A1 (259) and anti-BTN3A (103.2) mAbs on NIH-3T3 cells co-expressing BTN2A1 WT and the BTN3A1 mutant (association in cis).

Assay [4] has as its target B3. Briefly: SPR, soluble BTN2A1 ectodomain over immobilised BTN2A1 ectodomain homodimer.
For assay [5], the target named is B10. Nature of the assay: SPR, soluble BTN2A1 ectodomain over immobilised BTN3A1 homodimer, equilibrium analysis. On the technique in general: In SPR one partner is held on a chip, and binding of the other changes the refractive index at the surface.
Assay [6] has as its target B10. Briefly: SPR, soluble BTN2A1 ectodomain over immobilised BTN3A1 homodimer, equilibrium analysis, ± SEM.
Assay [7] addresses B10. Briefly: SPR, soluble BTN3A1 IgV domain over immobilised BTN3A1 homodimer.
The target in assay [8] is B3. Nature of the assay: SPR, soluble BTN3A1 IgV domain over immobilised BTN2A1 homodimer, equilibrium analysis, ± SEM.

B1: BTN2A1 ectodomain tetramer (streptavidin-PE) (ligand, human, UniProt Q7KYR7 29-248, looked up)
chain: QFIVVGPTDPILATVGENTTLRCHLSPEKNAEDMEVRWFRSQFSPAVFVYKGGRERTEEQMEEYRGRTTFVSKDISRGSVALVIHNITAQENGTYRCYFQEGRSYDEAILHLVVAGLGSKPLISMRGHEDGGIRLECISRGWYPKPLTVWRDPYGGVAPALKEVSMPDADGLFMVTTAVIIRDKSVRNMSCSINNTLLGQKKESVIFIPESFMPSVSPCA
notes: extracellular domain; biotinylated at a C-terminal AviTag; also called BTN2A1 tetramer
In the case of B1, the “median fluorescence of PE” value in assay [1] came out at 25.

B2: BTN2A1-BTN3A1-zipper ectodomain complex (wild type) (other)
chain 1: QFIVVGPTDPILATVGENTTLRCHLSPEKNAEDMEVRWFRSQFSPAVFVYKGGRERTEEQMEEYRGRTTFVSKDISRGSVALVIHNITAQENGTYRCYFQEGRSYDEAILHLVVAGLGSKPLISMRGHEDGGIRLECISRGWYPKPLTVWRDPYGGVAPALKEVSMPDADGLFMVTTAVIIRDKSVRNMSCSINNTLLGQKKESVIFIPESFMPSVSPCA
chain 2: not shown
notes: extracellular domain; Immobilised in SPR; streptavidin-PE tetramer in staining; also called BTN2A1-BTN3A1 complex; BTN2A1-BTN3A1 heteromer; not shown: acid zipper (AZ)-His6; basic zipper (BZ)-biotin ligase tag
Take B2: the “median fluorescence of PE” value in assay [1] came to 52. In assay [2], B3 gave a Kd of 500 µM.

B4: BTN3A1 Arg44-Ala on transfected NIH-3T3 cells (ligand)
chain: not shown
notes: whole, on cells; Position counts the mature protein
Turning to B4, the binding result in assay [3] is reported as “no binding”.

B5: BTN3A1 Tyr98-Ala on transfected NIH-3T3 cells (ligand)
chain: not shown
notes: as for B4
For B5, the binding result in assay [3] was “no binding”.

B6: BTN3A1 Tyr105-Ala on transfected NIH-3T3 cells (ligand)
chain: not shown
notes: as for B4
For B6, in assay [3], the binding result is “no binding”.

B7: BTN3A1 Tyr98-Phe on transfected NIH-3T3 cells (ligand)
chain: not shown
notes: as for B4
As for B7, in assay [3], the binding result was “no binding”.

B8: BTN3A1 Glu106-Ala on transfected NIH-3T3 cells (ligand)
chain: not shown
notes: as for B4
As to B8, the binding result in assay [3] is “no binding”.

B9: BTN3A1 Leu96-Ala on transfected NIH-3T3 cells (ligand)
chain: not shown
notes: as for B4
Turning to B9, the binding result in assay [3] is “no binding”. On to B10, for which the “median fluorescence of PE” value in assay [1] is 28.

B11: soluble BTN2A1 ectodomain lacking Cys247 (monomeric) (ligand, human, UniProt Q7KYR7 29-246, looked up)
chain: QFIVVGPTDPILATVGENTTLRCHLSPEKNAEDMEVRWFRSQFSPAVFVYKGGRERTEEQMEEYRGRTTFVSKDISRGSVALVIHNITAQENGTYRCYFQEGRSYDEAILHLVVAGLGSKPLISMRGHEDGGIRLECISRGWYPKPLTVWRDPYGGVAPALKEVSMPDADGLFMVTTAVIIRDKSVRNMSCSINNTLLGQKKESVIFIPESFMPSVSP
notes: extracellular domain; also called soluble monomeric BTN2A1 ectodomain; full-length BTN2A1 ectodomain; not shown: C-terminal biotin ligase (AviTag) and His tags
Consider B11, for which, in assay [4], the binding result is given as “no binding”. Besides, the results for the Kd in assay [5] and in assay [6] were roughly 1800 µM and 1800 µM, respectively.

B12: monomeric BTN3A1 IgV domain (ligand)
chain: not shown
notes: domain: IgV; not shown: C-terminal biotin ligase (AviTag) and His tags
As for B12, the binding result in assay [7] is recorded as “no binding (tested: 1,590 µM)”. Also, binding in assay [8] was put at a Kd of 1100 µM.

As usually defined, the Kd is a measure of binding affinity in units of concentration.
